Experimental data as given in paper PMC12325699, “Utilizing native nanodiscs to isolate active TRPC3 channels and expand structural analysis capabilities” (Scientific Reports, 2025).

Target: the molecule itself
Experiment: negative-stain electron microscopy; purified TRPC3 at 0.1 mg/mL, extracted from Expi293F membranes with DDM or with DDDG, on a TEM grid, stained with 1% uranyl acetate

B1: canonical transient receptor potential channel 3 (TRPC3), TRPC3-YFP-3xFLAG construct (natural protein, human, UniProt Q13507-3 1-848, looked up)
chain: MEGSPSLRRMTVMREKGRRQAVRGPAFMFNDRGTSLTAEEERFLDAAEYGNIPVVRKMLEESKTLNVNCVDYMGQNALQLAVGNEHLEVTELLLKKENLARIGDALLLAISKGYVRIVEAILNHPGFAASKRLTLSPCEQELQDDDFYAYDEDGTRFSPDITPIILAAHCQKYEVVHMLLMKGARIERPHDYFCKCGDCMEKQRHDSFSHSRSRINAYKGLASPAYLSLSSEDPVLTALELSNELAKLANIEKEFKNDYRKLSMQCKDFVVGVLDLCRDSEEVEAILNGDLESAEPLEVHRHKASLSRVKLAIKYEVKKFVAHPNCQQQLLTIWYENLSGLREQTIAIKCLVVLVVALGLPFLAIGYWIAPCSRLGKILRSPFMKFVAHAASFIIFLGLLVFNASDRFEGITTLPNITVTDYPKQIFRVKTTQFTWTEMLIMVWVLGMMWSECKELWLEGPREYILQLWNVLDFGMLSIFIAAFTARFLAFLQATKAQQYVDSYVQESDLSEVTLPPEIQYFTYARDKWLPSDPQIISEGLYAIAVVLSFSRIAYILPANESFGPLQISLGRTVKDIFKFMVLFIMVFFAFMIGMFILYSYYLGAKVNAAFTTVEESFKTLFWSIFGLSEVTSVVLKYDHKFIENIGYVLYGIYNVTMVVVLLNMLIAMINSSYQEIEDDSDVEWKFARSKLWLSYFDDGKTLPPPFSLVPSPKSFVYFIMRIVNFPKCRRRRLQKDIEMGMGNSKSRLNLFTQSNSRVFESHSFNSILNQPTRYQQIMKRLIKRYVLKAQVDKENDEVNEGELKEIKQDISSLRYELLEDKSQATEELAILIHKLSEKLNPSMLRCE
notes: a TEV site stands between the tags and TRPC3 by the plasmid's name; The protein was purified by its FLAG tag; no TEV cleavage step is described, so the tags were probably still on the protein in the electron microscopy; also called TRPC3–3 x FLAG–YFP; 3xFLAG-YFP; source: Expi293F, transiently transfected; membranes extracted with DDM or DDDG
  stoichiometry N: 4
